Assays:
[1] = system: ZFN SBS53853 (engineered); assay: cell_activity; conditions: pair with SBS55266, TCRA ZFN only, human T cells
[2] = system: ZFN SBS68876 (engineered); assay: cell_activity; conditions: pair with SBS68877, human T cells
[3] = system: ZFN SBS68812 (engineered); assay: cell_activity; conditions: pair with SBS68813, multiplex with B2M and CISH ZFNs plus GFP donor, T cells
[4] = target: human CD19 (human) (UniProt P15391); assay: cell-based or functional assay
[5] = system: ZFN SBS59489 (engineered); assay: cell_activity; conditions: pair with SBS59488, multiplex with TRAC and B2M ZFNs plus GFP donor, T cells
[6] = system: ZFN SBS57531 (engineered); assay: cell_activity; conditions: pair with SBS57071, B2M ZFN only, human T cells
[7] = system: ZFN SBS57071 (engineered); assay: cell_activity; conditions: pair with SBS57531, B2M ZFN only, human T cells
[8] = system: ZFN SBS59488 (engineered); assay: cell_activity; conditions: pair with SBS59489, multiplex with TRAC and B2M ZFNs plus GFP donor, T cells

AACAGGTAAGACAGGGGTCTAGCCTGGG (double strand) [TCRA site 53853]
activity [1]: 88.3 % indels

CTCCTGAAAGTGGCCGGGTTTAATCTGC (double strand) [TCRA site 68812/68876]
activity (% knockout (CD3 loss)) [2]: 97 | activity [3]: 93 % knockout

FMC63-CD8BBZ (CD19 CAR) (from UniProt P01732 138-206; Q07011 214-255; P20963 52-164)
CD19+ K562 cells remaining after co-culture with CAR T cells at effector:target 2:1 (CAR inserted at the B2M gene) [4]: 0.4% | CD19+ K562 cells remaining after co-culture with CAR T cells at effector:target 2:1 (CAR inserted at the TCRA gene) [4]: 0.1%

GAGGAGGTGGCAGAGGGTACCCCAGCCC (double strand) [CISH site 59489]
activity [5]: 98 % knockout

GAGTAGCGCGAGCACAGCTAAGGCCACG (double strand) [B2M site 57531]
activity [6]: 86.6 % indels

GCCACGGAGCGAGACATCTCGGCCCGAA (double strand) [B2M site 57071]
activity [7]: 86.6 % indels

GGAAGGCCCCAGCAGGCAAGGGCTGCAT (double strand) [CISH site 59488]
activity [8]: 98 % knockout
